Results on 2 proteins are retold here after paper PMC10433458 (Proceedings of the National Academy of Sciences of the …, 2023).

Data set [1] deals with the molecule itself. The data set is described as follows: SEC. A general note: Size exclusion chromatography separates by hydrodynamic size, large species first.
Data set [2] concerns the molecule itself. The data set is described as follows: SEC. This is another data set of the same source.

Read-outs that look alike come from different tables or passages of the source.

B1: phosphoribulokinase of C. reinhardtii (enzyme, UniProt P19824 32-375, looked up)
chain: DKDKTVVIGLAADSGCGKSTFMRRMTSIFGGVPKPPAGGNPDSNTLISDMTTVICLDDYHCLDRNGRKVKGVTALAPEAQNFDLMYNQVKALKEGKSVDKPIYNHVSGLIDAPEKIESPPILVIEGLHPFYDKRVAELLDFKIYLDISDDIKFAWKIQRDMAERGHSLESIKSSIAARKPDFDAYIDPQKKDADMIIQVLPTQLVPDDKGQYLRVRLIMKEGSKMFDPVYLFDEGSTISWIPCGRKLTCSFPGIKMFYGPDTWYGQEVSVLEMDGQFDKLEELIYVESHLSNTSAKFYGEITQQMLKNSGFPGSNNGTGLFQTIVGLKVREVYERIVKKDVVPV
As a reminder, the stoichiometry N is a count of units in the complex or per binding partner. Turning to B1, the “stoichiometry N” value in “SEC [1]” was determined as 2.

B2: phosphoribulokinase of A. thaliana (enzyme, A. thaliana (endogenous in leaves), UniProt P25697 47-395, looked up)
chain: AQETIVIGLAADSGCGKSTFMRRLTSVFGGAAKPPKGGNPDSNTLISDTTTVICLDDYHSLDRYGRKEQKVTALDPRANDFDLMYEQVKALKNGIAVEKPIYNHVTGLLDPPELIQPPKILVIEGLHPMFDERVRDLLDFSIYLDISNEVKFAWKIQRDMAERGHSLESIKASIEARKPDFDAFIDPQKQYADAVIEVLPTTLIPDDNEGKVLRVRLIMKEGVKYFSPVYLFDEGSTISWIPCGRKLTCSYPGIKFNYEPDSYFDHEVSVLEMDGQFDRLDELIYVESHLSNLSTKFYGEVTQQMLKHADFPGSNNGTGLFQTIVGLKIRDLYEQLIANKATARAEAKA
On to B2, for which the “stoichiometry N” value in the data set “SEC [2]” is 2.
